# Measured values reported in US20120237496.
# Numbering of substitutions follows the chain as printed.
# T1: Peptide-13 (not fully specified)
# T1 chain: CRPPGFSPFRK
# T2: Peptide-3
# T2 chain: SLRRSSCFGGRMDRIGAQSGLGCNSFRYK
# T3: Peptide-5 (not fully specified)
# T3 chain: CDRVYIHPFHLK
# T4: Peptide-6a
# T4 chain: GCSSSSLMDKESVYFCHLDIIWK
# T5: Peptide-6b
# T5 chain: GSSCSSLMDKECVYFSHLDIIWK
# T6: Peptide-8 (not fully specified)
# T6 chain: CQLYENKPRRPYILK
# B1: C1 (protein)
# chain: YPYDVPDYAYPYDVPDYAYPYDVPDYAGSYDDGICKSSDCIKSAARLIQNMDATTEPCTDFFKYACGGWLKRNVIPETSSRYGNFDILRDELEVVLKDVLQEPKTEDIVAVQKAKALYRSCINESAIDSRGGEPLLKLLPDIYGWPVATENWEQKYGASWTAEKAIAQLNSKYGKKVLINLFVGTDDKNSVNHVIHIDQPRLGLPSRDYYECTGIYKEACTAYVDFMISVARLIRQEERLPIDENQLALEMNKVMELEKEIANATAKPEDRNDPMLLYNKMTLAQIQNNFSLEINGKPFSWLNFTNEIMSTVNISITNEEDVVVYAPEYLTKLKPILTKYSARDLQNLMSWRFIMDLVSSLSRTYKESRNAFRKALYVTTSETATWRRCANYVNGNMMNAVGRLYVEAAFAGESKHVVEDLIAQIREVFIQTLDDLTWMDAETKKRAEEKALAIKERIGYPDDIVSNDNKLNNEYLELNYKEDEYFENIIQNLKFSQSKQLKKLREKVDKDEWISGAAVVNAFYSSGRNQIVFPAGILQPPFFSAQQSNSLNYGGIGMVIGHEITHGFDDNGRNFNKDGDLVDWWTQQSASNFKEQSQCMVYQYGNFSWDLAGGQHLNGINTLGENIADNGGLGQAYRAYQNYIKKNGEEKLLPGLDLNHKQLFFLNFAQVWCGTYRPEYAVNSIKTVVHSPKNFRIIGTLQNSAEFSEAFHCRKNSYMNPEKKCRVW
# B2: D10 (protein)
# chain: B1 chain with S206R, F226L, A266S, D356G, D569M, G572V, F575P, G579D, G624Q, V688D
# B3: D3 (protein)
# chain: B1 chain with D569F, F575P, G579D, G624Q, V688D
# B4: D7 (protein)
# chain: B1 chain with S206R, F226L, D356G, D569M, G572V, F575P, G579D, V688D
# B5: C8 (protein)
# chain: B1 chain with S206R, R207G, M398E, D569F, G579W, V688D
# B6: D8 (protein)
# chain: B1 chain with S206R, F226L, D569M, G572V, F575P, G579D, G624Q, V688D
# B7: C9 (protein)
# chain: B1 chain with S206R, R207G, M398E, D569M, G572V, G579L, V688D
# B8: D1 (protein)
# chain: B1 chain with A266S, D569F, F575P, G579D, V688D
# B9: D2 (protein)
# chain: B1 chain with D356G, D569F, F575P, G579D, V688D
# Biological target: Peptide-1
Protein,activity relative to G399V/G714K (B1) [fold],kapp ratio vs G399V/G714K (B1) [fold]
B1,1.14,1.28
B2,1.33,–
B3,3.11,–
B4,0.88,–
B5,–,1.86
B6,2.58,–
B7,–,2.33
B8,1.11,–
B9,0.83,–

# Biological target: T1, Peptide-13
row,Protein,kapp ratio vs G399V/G714K (B1) [fold]
1,B1,0.52
2,B5,0.43
3,B7,0.52

# Biological target: Peptide-2
Protein,activity relative to G399V/G714K (B1) [fold],kapp ratio vs G399V/G714K (B1) [fold]
B1,1.12,1.23
B2,1.26,–
B3,3.42,–
B4,1.18,–
B5,–,1.64
B6,2.66,–
B7,–,2.44
B8,1.24,–
B9,1.06,–

# Biological target: T2, Peptide-3
row,Protein,kapp ratio vs G399V/G714K (B1) [fold]
1,B1,0.36
2,B5,0.24
3,B7,0.24

# Biological target: Peptide-4
Protein,activity relative to G399V/G714K (B1) [fold],kapp ratio vs G399V/G714K (B1) [fold]
B1,1.1,0.51
B2,0.84,–
B3,1.04,–
B4,0.91,–
B5,–,1.17
B6,0.95,–
B7,–,0.67
B8,0.95,–
B9,0.9,–

# Biological target: T3, Peptide-5
Protein,activity relative to G399V/G714K (B1) [fold],kapp ratio vs G399V/G714K (B1) [fold]
B1,0.86,1.02
B2,0.08,–
B3,0.1,–
B4,0.09,–
B5,–,0.27
B6,0.09,–
B7,–,0.22
B8,0.08,–
B9,0.08,–

# Biological target: T4, Peptide-6a
Protein,activity relative to G399V/G714K (B1) [fold],kapp ratio vs G399V/G714K (B1) [fold]
B1,0.76,0.97
B2,0.08,–
B3,0.47,–
B4,0.13,–
B5,–,0.32
B6,0.44,–
B7,–,0.31
B8,0.12,–
B9,0.08,–

# Biological target: T5, Peptide-6b
row,Protein,kapp ratio vs G399V/G714K (B1) [fold]
1,B1,0.76
2,B5,0.24
3,B7,0.21

# Biological target: Peptide-7
Protein,activity relative to G399V/G714K (B1) [fold],kapp ratio vs G399V/G714K (B1) [fold]
B1,0.96,0.9
B2,0.33,–
B3,0.95,–
B4,0.66,–
B5,–,0.69
B6,0.82,–
B7,–,0.52
B8,0.61,–
B9,0.4,–

# Biological target: T6, Peptide-8
row,Protein,kapp ratio vs G399V/G714K (B1) [fold]
1,B1,0.62
2,B5,0.36
3,B7,0.46
